This is an account of results in publication doi:10.1101/2024.10.15.618391.

Experiment in all cases: BLI
Experiment [1] addresses His6-SeSepF (Spiroplasma eriocheiris SepF) (Spiroplasma eriocheiris).
For experiment [2] the target is unchanged. This is another data set of the same source.
For experiment [3] the target is unchanged. The source holds these as a separate data set.

pKd: −log10 of the molar value. Several values for one entry are separate records, joined by “and”; a condition that tells them apart may be missing. Equal values may be shown once. Read-outs that look alike come from different tables or passages of the source.

On to “SeFtsZ L272E mutant (from UniProt A0A0H3XMR3 1-411) (natural protein)”, for which the pKd in experiment [1] is 6.01 and 6.15.
Turning to “Spiroplasma eriocheiris FtsZ, His-tag removed (from UniProt A0A0H3XMR3 1-411) (natural protein)”, the pKd in experiment [2] is 4.27; in experiment [1], 5.95; in experiment [3], 5.98.
